Laboratory results: PMC10397247
Read-outs that look alike come from different tables or passages of the source.

Experiments:
Assay in all cases: two-hybrid library CCmax;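 note: natural log of median RNA to DNA barcode read ratio; higher means stronger binding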
[1] = biological target: T1, 4H454-AA; details: mean of both orientations
T1 chain: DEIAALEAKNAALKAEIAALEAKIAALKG

[2] = biological target: T2, 4H566-AA; details: mean of both orientations
T2 chain: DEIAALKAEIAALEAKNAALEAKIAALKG

[3] = biological target: T3, 4H2165-AA
T3 chain: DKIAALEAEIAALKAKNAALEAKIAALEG

[4] = biological target: T4, 4H2754-AA; details: mean of both orientations
T4 chain: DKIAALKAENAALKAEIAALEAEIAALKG

[5] = biological target: T5, 4H3001-AA; details: mean of both orientations
T5 chain: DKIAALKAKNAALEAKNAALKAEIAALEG

[6] = biological target: T6, 4H993-AA; details: mean of both orientations
T6 chain: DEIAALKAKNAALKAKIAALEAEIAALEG

[7] = biological target: T7, 4H452-AA; details: mean of both orientations
T7 chain: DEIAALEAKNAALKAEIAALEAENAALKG

[8] = biological target: T8, 4H906-AA; details: mean of both orientations
T8 chain: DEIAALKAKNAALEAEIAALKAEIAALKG

[9] = biological target: T9, 4H2354-AA; details: mean of both orientations
T9 chain: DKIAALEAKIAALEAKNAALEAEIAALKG

[10] = biological target: T10, 4H347-AA; details: mean of both orientations
T10 chain: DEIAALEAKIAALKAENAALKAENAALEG

[11] = biological target: T11, 4H3655-AA; details: mean of both orientations
T11 chain: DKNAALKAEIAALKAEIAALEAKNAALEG

[12] = biological target: T12, 4H3073-AA
T12 chain: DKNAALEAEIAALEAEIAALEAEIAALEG

[13] = biological target: T13, 4H342-AA; details: mean of both orientations
T13 chain: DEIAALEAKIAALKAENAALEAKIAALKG

[14] = biological target: T14, 4H2949-AA; details: mean of both orientations
T14 chain: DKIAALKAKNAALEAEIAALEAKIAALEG

[15] = biological target: T15, 4H780-AA; details: mean of both orientations
T15 chain: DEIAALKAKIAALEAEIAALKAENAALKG

[16] = biological target: T16, 4H3112-AA; details: mean of both orientations
T16 chain: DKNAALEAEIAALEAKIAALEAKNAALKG

[17] = biological target: T17, 4H1845-AA; details: mean of both orientations
T17 chain: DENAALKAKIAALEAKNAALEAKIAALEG

[18] = biological target: T18, 4H1513-AA; details: mean of both orientations
T18 chain: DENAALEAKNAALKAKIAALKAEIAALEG

[19] = biological target: T19, 4H1594-AA; details: mean of both orientations
T19 chain: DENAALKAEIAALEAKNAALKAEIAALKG

[20] = biological target: T20, 4H3413-AA; details: mean of both orientations
T20 chain: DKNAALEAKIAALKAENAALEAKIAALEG

[21] = biological target: T21, 4H451-AA; details: mean of both orientations
T21 chain: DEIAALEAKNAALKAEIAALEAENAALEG

[22] = biological target: T22, 4H2705-AA; details: mean of both orientations
T22 chain: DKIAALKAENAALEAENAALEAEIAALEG

[23] = biological target: T23, O11-AA; details: mean of both orientations
T23 chain: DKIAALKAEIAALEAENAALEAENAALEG

[24] = biological target: T24, 4H1392-AA; details: mean of both orientations
T24 chain: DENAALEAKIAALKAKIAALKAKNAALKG

[25] = biological target: T25, 4H3049-AA; details: mean of both orientations
T25 chain: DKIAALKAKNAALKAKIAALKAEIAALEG

[26] = biological target: T26, 4H43-AA; details: mean of both orientations
T26 chain: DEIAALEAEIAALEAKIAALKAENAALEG

[27] = biological target: T27, 4H2109-AA; details: mean of both orientations
T27 chain: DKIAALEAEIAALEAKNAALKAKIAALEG

[28] = biological target: T28, 4H1877-AA; details: mean of both orientations
T28 chain: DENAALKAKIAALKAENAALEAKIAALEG

[29] = biological target: T29, 4H1360-AA; details: mean of both orientations
T29 chain: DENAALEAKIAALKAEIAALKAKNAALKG

[30] = biological target: T30, 4H2728-AA; details: mean of both orientations
T30 chain: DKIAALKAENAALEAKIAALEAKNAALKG

[31] = biological target: T31, 4H3782-AA; details: mean of both orientations
T31 chain: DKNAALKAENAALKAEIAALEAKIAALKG

[32] = biological target: T32, 4H1913-AA; details: mean of both orientations
T32 chain: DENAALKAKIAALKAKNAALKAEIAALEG

[33] = biological target: T33, 4H688-AA; details: mean of both orientations
T33 chain: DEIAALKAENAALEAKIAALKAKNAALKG

[34] = biological target: T34, 4H376-AA; details: mean of both orientations
T34 chain: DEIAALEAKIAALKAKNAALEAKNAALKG

[35] = biological target: T35, 4H883-AA
T35 chain: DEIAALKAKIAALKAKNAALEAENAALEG

[36] = biological target: T36, 4H3855-AA; details: mean of both orientations
T36 chain: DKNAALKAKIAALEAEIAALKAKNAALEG

[37] = biological target: T37, 4H687-AA; details: mean of both orientations
T37 chain: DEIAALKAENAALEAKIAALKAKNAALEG

[38] = biological target: T38, 4H918-AA; details: mean of both orientations
T38 chain: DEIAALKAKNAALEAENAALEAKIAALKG

[39] = biological target: T39, 4H568-AA; details: mean of both orientations
T39 chain: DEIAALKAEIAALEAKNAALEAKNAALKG

## DKIAALEAEIAALKAKNAALEAKIAALEG [4H2165-AA]
[1]
  interaction score: -0.571
[2]
  interaction score: 0.482
[3]
  interaction score: 1.41
[4]
  interaction score: -0.0505
[5]
  interaction score: -1.67
[6]
  interaction score: 0.0167
[7]
  interaction score: -1.51
[8]
  interaction score: -1.29
[9]
  interaction score: -1.76
[10]
  interaction score: -1.3
[11]
  interaction score: -1.37
[12]
  interaction score: -1.45
[13]
  interaction score: 1.73
[14]
  interaction score: -1.21
[15]
  interaction score: -1.4
[16]
  interaction score: -0.868

## DENAALEAENAALEAEIAALEAEIAALEG [4H1153-AA]
[1]
  interaction score: 0.894
[2]
  interaction score: -1.5
[3]; mean of both orientations
  interaction score: -1.33
[4]
  interaction score: -0.638
[6]
  interaction score: 1.59
[17]
  interaction score: -1.27
[8]
  interaction score: -1.21
[18]
  interaction score: 1.5
[9]
  interaction score: -1.55
[19]
  interaction score: -1.13
[11]
  interaction score: -0.01
[20]
  interaction score: -1.92
[13]
  interaction score: -1.39
[14]
  interaction score: -0.947
[15]
  interaction score: -1.44
[16]
  interaction score: -2.33

## DENAALEAKIAALKAEIAALEAKIAALKG [4H1350-AA]
[21]
  interaction score: 0.115
[22]
  interaction score: -1.8
[23]
  interaction score: -0.612
[24]
  interaction score: -0.186
[25]
  interaction score: 0.379
[26]
  interaction score: 2.09

## DEIAALEAENAALEAKIAALKAENAALEG [4H171-AA]
[27]
  interaction score: -0.826
[23]
  interaction score: -1.82
[28]
  interaction score: -1.1

## DENAALEAKIAALEAENAALKAKIAALKG [4H1310-AA]
[27]
  interaction score: 0.409
[17]
  interaction score: -0.784
[18]
  interaction score: -1.48
[19]
  interaction score: 1.18
[20]
  interaction score: 1.51
[28]
  interaction score: 1.5

## DENAALEAEIAALEAKIAALEAKNAALKG [4H1064-AA]
[29]
  interaction score: 0.702
[30]
  interaction score: -1.43
[31]
  interaction score: -0.855
[32]
  interaction score: -0.972
[25]
  interaction score: 0.863

## DENAALKAEIAALKAENAALKAEIAALKG [4H1626-AA]
[27]
  interaction score: -1.51
[5]
  interaction score: -2.01
[10]
  interaction score: -1.66
[33]
  interaction score: -1.19
[34]
  interaction score: -1.87
[28]
  interaction score: -0.845

## DENAALEAENAALKAKIAALKAEIAALEG [4H1257-AA]
[35]
  interaction score: -1.67
[29]
  interaction score: -0.666
[36]
  interaction score: -0.401
[17]
  interaction score: -1.49
[30]
  interaction score: -0.459
[37]
  interaction score: -1.24
[31]
  interaction score: 2.21
[32]
  interaction score: -0.977
[25]
  interaction score: -0.309
[38]
  interaction score: -1.05
[39]
  interaction score: -0.953
[16]
  interaction score: 0.173
